Assay results published in US20190031785A1 (COMPASS THERAPEUTICS, published 2019).
Values belong to the binder of their own block, whether it stands above or below them.

Tests used:
[1] = biological target: T1, Recombinant human CD137 Fc fusion protein (Sino Biological) (human, UniProt Q07011 24-186); experiment: BLI (ForteBio Octet); CD137 Fc on Protein A sensors, 100 nM construct; column 'Affinity (nM)'
T1 construct: not shown: Fc part of a bought fusion protein
Description: (§1) Antigen binding of MIAC constructs were analyzed using ForteBio Octet. […] All antigens were reconstituted in PBS at the final concentration of 0.25 ug/ul. […] Association proceeded by dipping sensors in 100 nM MIAC constructs for 5 minutes and disassociation occurred in blank kinetics buffer for 5 minutes. For CD3 epsilon binding, antigen was immobilized on Ni-NTA sensors; association was performed in 50 nM MIAC constructs. Binding data were analyzed using ForteBio Data Analysis 9.0 software.

[2] = biological target: T2, Recombinant human PD-1 Fc fusion protein (Sino Biological) (human, UniProt Q15116 25-167); experiment: BLI (ForteBio Octet); antigen-Fc on Protein A sensors, construct in solution; NB: no binding detected
T2 construct: not shown: Fc part of a bought fusion protein
Description: as §1

[3] = biological target: T3, Recombinant human Her2 Fc fusion protein (Sino Biological) (human, UniProt P04626 23-652); experiment: as above
T3 construct: not shown: Fc part of a bought fusion protein
Description: as §1

[4] = biological target: T2, Recombinant human PD-1 Fc fusion …; experiment: ForteBio Octet bio-layer interferometry, sequential steps on one sensor: Her2 loading, blocking antibody, PID92, PD-1 (printed 'PI-1'), CD137
[5] = biological target: T1, Recombinant human CD137 Fc fusion …; experiment: BLI (ForteBio Octet); antigen-Fc on Protein A sensors, construct in solution; NB: no binding detected
Description: as §1

[6] = biological target: T2, Recombinant human PD-1 Fc fusion …; experiment: BLI (ForteBio Octet); PD-1 Fc on Protein A sensors, 100 nM construct; column 'Affinity (nM)'
Description: as §1

[7] = biological target: T1, Recombinant human CD137 Fc fusion …; experiment: ForteBio Octet bio-layer interferometry, sequential steps on one sensor: Her2 loading, blocking antibody, PID7, PD-1 (printed 'PI-1'), CD137

T2 sequence (Q15116 25-167 limits assumed): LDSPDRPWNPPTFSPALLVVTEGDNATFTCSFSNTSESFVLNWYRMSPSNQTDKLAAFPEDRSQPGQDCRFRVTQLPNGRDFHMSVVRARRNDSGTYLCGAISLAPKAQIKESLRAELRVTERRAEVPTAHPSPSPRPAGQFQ

Kd [1]: 0.7 nM
binding result [2]: no binding (tested: 100 nM)
binding result [3]: no binding (tested: 100 nM)
B1: PID-90 (monospecific anti-CD137; urelumab Fab domain, human IgG1) (antibody, V domains shown)
VH: QVQLQQWGAGLLKPSETLSLTCAVYGGSFSGYYWSWIRQSPEKGLEWIGEINHGGYVTYNPSLESRVTISVDTSKNQFSLKLSSVTAADTAVYYCARDYGPGNYDWYFDLWGRGTLVTVSS
VL: EIVLTQSPATLSLSPGERATLSCRASQSVSSYLAWYQQKPGQAPRLLIYDASNRATGIPARFSGSGSGTDFTLTISSLEPEDFAVYYCQQRSNWPPALTFGGGTKVEIKR
notes: also called PID90 (CD137)

Kd [1]: 0.23 nM
binding result [4]: no binding
B2: PID-92 (bispecific Her2/CD137 MIAC; urelumab IgG1 with trastuzumab scFv at the heavy chain C-termini) (bispecific antibody)
heavy: not shown
light: not shown
notes: also called α-Her2/α-CD137 MIAC; PID92 [Her2/CD137]

binding result [5]: no binding (tested: 100 nM)
binding result [3]: no binding (tested: 100 nM)
B3: PID-2 (monospecific anti-PD-1; pembrolizumab Fab domain, human IgG1) (antibody, V domains shown)
VH: QVQLVQSGVEVKKPGASVKVSCKASGYTFTNYYMYWVRQAPGQGLEWMGGINPSNGGTNFNEKFKNRVTLTTDSSTTTAYMELKSLQFDDTAVYYCARRDYRFDMGFDYWGQGTTVTVSS
VL: EIVLTQSPATLSLSPGERATLSCRASKGVSTSGYSYLHWYQQKPGQAPRLLIYLASYLESGVPARFSGSGSGTDFTLTISSLEPEDFAVYYCQHSRDLPLTFGGGTKVEIKR
notes: also called PID2 (PD-1)

Kd [6]: 0.12 nM
binding result [7]: no binding
B4: PID-7 (bispecific Her2/PD-1 MIAC; pembrolizumab IgG1 with trastuzumab scFv at the heavy chain C-termini) (bispecific antibody)
heavy: not shown
light: EIVLTQSPATLSLSPGERATLSCRASKGVSTSGYSYLHWYQQKPGQAPRLLIYLASYLESGVPARFSGSGSGTDFTLTISSLEPEDFAVYYCQHSRDLPLTFGGGTKVEIKRTVAAPSVFIFPPSDEQLKSGTASVVCLLNNFYPREAKVQWKVDNALQSGNSQESVTEQDSKDSTYSLSSTLTLSKADYEKHKVYACEVTHQGLSSPVTKSFNRGEC
notes: also called α-Her2/α-PD-1
